T1: SauUSI (Staphylococcus aureus, UniProt Q2FVC3 1-953)
T1 sequence: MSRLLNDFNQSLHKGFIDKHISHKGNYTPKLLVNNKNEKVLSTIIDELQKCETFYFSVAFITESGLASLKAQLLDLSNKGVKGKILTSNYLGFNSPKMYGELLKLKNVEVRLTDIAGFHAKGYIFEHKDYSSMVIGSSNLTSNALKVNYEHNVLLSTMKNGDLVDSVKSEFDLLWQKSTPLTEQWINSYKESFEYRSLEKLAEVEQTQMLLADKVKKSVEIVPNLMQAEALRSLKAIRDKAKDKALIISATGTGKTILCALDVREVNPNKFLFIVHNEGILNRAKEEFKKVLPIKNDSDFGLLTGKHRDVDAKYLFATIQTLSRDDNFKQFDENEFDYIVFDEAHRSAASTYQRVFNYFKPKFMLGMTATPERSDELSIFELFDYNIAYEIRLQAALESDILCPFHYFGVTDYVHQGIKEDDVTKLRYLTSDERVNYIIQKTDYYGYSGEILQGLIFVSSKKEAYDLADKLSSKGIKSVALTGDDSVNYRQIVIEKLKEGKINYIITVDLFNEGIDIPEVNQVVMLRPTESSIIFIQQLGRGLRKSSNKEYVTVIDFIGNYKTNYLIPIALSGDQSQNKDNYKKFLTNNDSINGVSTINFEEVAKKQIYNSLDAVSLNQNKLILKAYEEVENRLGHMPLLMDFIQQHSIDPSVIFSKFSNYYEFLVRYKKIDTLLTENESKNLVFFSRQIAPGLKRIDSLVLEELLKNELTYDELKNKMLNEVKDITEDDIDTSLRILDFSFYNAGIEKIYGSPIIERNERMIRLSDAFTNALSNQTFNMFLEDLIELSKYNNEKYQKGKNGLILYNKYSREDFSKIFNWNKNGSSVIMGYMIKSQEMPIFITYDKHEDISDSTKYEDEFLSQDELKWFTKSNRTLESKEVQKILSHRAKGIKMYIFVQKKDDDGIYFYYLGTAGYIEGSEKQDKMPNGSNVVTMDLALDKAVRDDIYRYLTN

B1: EMSA methylated 60 bp (specific DNA) (dsDNA)
DNA 1: GCCGCGGATCCTTCACAAGACGATTACCGGCGCTGAAAGACCAGCATATGCAATTTGACT
DNA 2: AGTCAAATTGCATATGCTGGTCTTTCAGCGCCGGTAATCGTCTTGTGAAGGATCCGCGGC
modifications: 5-methyl-dC at position 28 of strand 1 and position 31 of strand 2 (both strands)

Key:
[1] = molecular target: SauUSI (Staphylococcus aureus); assay: SEC-MALS; 1 mg/ml SauUSI injected on Superdex 200 in 50 mM Tris-HCl pH 8, 50 mM NaCl, 1 mM DTT
SauUSI = molecular target: T1, SauUSI; assay: EMSA; 250 nM DNA; shift first detected at 0.1 uM SauUSI (0.05-1.6 uM tested); Protein and DNA incubated 20 min on ice; 5% native PAGE, ethidium bromide stain; binding buffer, salt and pH not stated; conditions: protein: recombinant; tags: His-tag (HisTrap purified); chain copies: 2; blunt

Molecule | stoichiometry N [1] | binding result (SauUSI)
SauUSI (enzyme) | 2 | –
B1 | – | binds

From publication PMC7913695, “Mechanism of DNA cleavage by the endonuclease SauUSI: a major barrier to horizontal gene transfer and antibiotic resistance in Staphylococcus aureus”
